Ratio to parent data for 10 variants are collected here from article PMC9587022 (2022).

The labels stand for the following.
B1: HA-tagged UL97, wild type, full length (pCGN-HA-UL97) [human cytomegalovirus (HCMV)] / Flag-tagged 14-3-3 η [human] (parent complex)
chain 1: MSSALRSRARSASLGTTTQGWDPPPLRRPSRARRRQWMREAAQAAAQAAVQAAQAAAAQVAQAHVDENEVVDLMADEAGGGVTTLTTLSSVSTTTVLGHATFSACVRSDVMRDGEKEDAASDKENLRRPVVPSTSSRGSAASGDGYHGLRCRETSAMWSFEYDRDGDVTSVRRALFTGGSDPSDSVSGVRGGRKRPLRPPLVSLARTPLCRRRVGGVDAVLEENDVELRAESQDSAVASGPGRIPQPLSGSSGEESATAVEADSTSHDDVHCTCSNDQIITTSIRGLTCDPRMFLRLTHPELCELSISYLLVYVPKEDDFCHKICYAVDMSDESYRLGQGSFGEVWPLDRYRVVKVARKHSETVLTVWMSGLIRTRAAGEQQQPPSLVGTGVHRGLLTATGCCLLHNVTVHRRFHTDMFHHDQWKLACIDSYRRAFCTLADAIKFLNHQCRVCHFDITPMNVLIDVNPHNPSEIVRAALCDYSLSEPYPDYNERCVAVFQETGTARRIPNCSHRLRECYHPAFRPMPLQKLLICDPHARFPVAGLRRYCMSELSALGNVLGFCLMRLLDRRGLDEVRMGTEALLFKHAGAACRALENGKLTHCSDACLLILAAQMSYGACLLGEHGAALVSHTLRFVEAKMSSCRVRAFRRFYHECSQTMLHEYVRKNVERLLATSDGLYLYNAFRRTTSIICEEDLDGDCRQLFPE
chain 2: MGDREQLLQRARLAEQAERYDDMASAMKAVTELNEPLSNEDRNLLSVAYKNVVGARRSSWRVISSIEQKTMADGNEKKLEKVKAYREKIEKELETVCNDVLSLLDKFLIKNCNDFQYESKVFYLKMKGDYYRYLAEVASGEKKNSVVEASEAAYKEAFEISKEQMQPTHPIRLGLALNFSVFYYEIQNAPEQACLLAKQAFDDAIAELDTLNEDSYKDSTLIMQLLRDNLTLWTSDQQDEEAGEGN
B2: HA-tagged UL97, wild type, full length (pCGN-HA-UL97) [human cytomegalovirus (HCMV)] / Flag-tagged 14-3-3 β [human] (parent complex)
chain 1: B1 chain 1
chain 2: MTMDKSELVQKAKLAEQAERYDDMAAAMKAVTEQGHELSNEERNLLSVAYKNVVGARRSSWRVISSIEQKTERNEKKQQMGKEYREKIEAELQDICNDVLELLDKYLIPNATQPESKVFYLKMKGDYFRYLSEVASGDNKQTTVSNSQQAYQEAFEISKKEMQPTHPIRLGLALNFSVFYYEILNSPEKACSLAKTAFDEAIAELDTLNEESYKDSTLIMQLLRDNLTLWTSENQGDEGDAGEGEN
B3: HA-tagged UL97, wild type, full length (pCGN-HA-UL97) [human cytomegalovirus (HCMV)] / Flag-tagged 14-3-3 γ [human] (parent complex)
chain 1: B1 chain 1
chain 2: MVDREQLVQKARLAEQAERYDDMAAAMKNVTELNEPLSNEERNLLSVAYKNVVGARRSSWRVISSIEQKTSADGNEKKIEMVRAYREKIEKELEAVCQDVLSLLDNYLIKNCSETQYESKVFYLKMKGDYYRYLAEVATGEKRATVVESSEKAYSEAHEISKEHMQPTHPIRLGLALNYSVFYYEIQNAPEQACHLAKTAFDDAIAELDTLNEDSYKDSTLIMQLLRDNLTLWTSDQQDDDGGEGNN
B4: HA-tagged UL97, wild type, full length (pCGN-HA-UL97) [human cytomegalovirus (HCMV)] / Flag-tagged 14-3-3 θ [human] (parent complex)
chain 1: B1 chain 1
chain 2: MEKTELIQKAKLAEQAERYDDMATCMKAVTEQGAELSNEERNLLSVAYKNVVGGRRSAWRVISSIEQKTDTSDKKLQLIKDYREKVESELRSICTTVLELLDKYLIANATNPESKVFYLKMKGDYFRYLAEVACGDDRKQTIDNSQGAYQEAFDISKKEMQPTHPIRLGLALNFSVFYYEILNNPELACTLAKTAFDEAIAELDTLNEDSYKDSTLIMQLLRDNLTLWTSDSAGEECDAAEGAEN
B5: HA-tagged UL97, wild type, full length (pCGN-HA-UL97) [human cytomegalovirus (HCMV)] / Flag-tagged 14-3-3 ε [human] (parent complex)
chain 1: B1 chain 1
chain 2: MDDREDLVYQAKLAEQAERYDEMVESMKKVAGMDVELTVEERNLLSVAYKNVIGARRASWRIISSIEQKEENKGGEDKLKMIREYRQMVETELKLICCDILDVLDKHLIPAANTGESKVFYYKMKGDYHRYLAEFATGNDRKEAAENSLVAYKAASDIAMTELPPTHPIRLGLALNFSVFYYEILNSPDRACRLAKAAFDDAIAELDTLSEESYKDSTLIMQLLRDNLTLWTSDMQGDGEEQNKEALQDVEDENQ

In the first assay the parent is B1. Description: co-immunoprecipitation (IP anti-HA, Western blot quantification); U-2 OS cells; WT UL97 0.6 μg, mutant 1.2 μg expression vector; 1 μg Flag-14-3-3 plasmid; read off a plot.
As to chain 1 S13A, the ratio to parent was about 0.17. The same measure, in the same setting: the result for chain 1 K355Q reads about 0.32.

Another assay covers variants of B2. The assay is described as above.
In the case of chain 1 K355Q, the ratio to parent is about 0.45. For chain 1 S13A, the ratio to parent is about 0.14.

In another assay the parent is B3. Described as above.
Take chain 1 S13A: the ratio to parent is about 0.07. chain 1 K355Q: the ratio to parent was about 0.62.

Variants of B4 are the subject of another assay. The description is as above.
For the variant chain 1 S13A, the ratio to parent was about 0.05. chain 1 K355Q: the ratio to parent was about 0.2.

In another assay the parent is B5. The assay is described as above.
With chain 1 K355Q, the ratio to parent is about 0.42. Still for that read-out and setting: the same measure for chain 1 S13A: about 0.06.
